Test results as given in patent publication US20160200782A1.
Each block holds one substance with its values, some of them ahead of it.

Key:
Assay in all cases: cell-based or functional assay
[1] = molecular target: ALK4(h) (human) (UniProt P36896)
[2] = molecular target: Ab1(M351T)(h) (human) (UniProt P00519)
[3] = molecular target: Ab1(Q252H)(h) (human) (UniProt P00519)
[4] = molecular target: Arg(h) (human) (UniProt P42684)
[5] = molecular target: Aurora-B(h) (human) (UniProt Q96GD4)
[6] = molecular target: BRK(h) (human) (UniProt Q13882)
[7] = molecular target: Bmx(h) (human) (UniProt P51813)
[8] = molecular target: CDK1/cyclinB(h) (human) (UniProt P06493)
[9] = molecular target: CDK2/cyclinE(h) (human) (UniProt P24941)
[10] = molecular target: CHK1(h) (human) (UniProt O14757)
[11] = molecular target: CHK2(R145W)(h) (human) (UniProt O96017)
[12] = molecular target: CK2(h) (human)
[13] = molecular target: CLK3(h) (human) (UniProt P49761)
Sequence of CLK3(h) (human) (P49761 whole entry): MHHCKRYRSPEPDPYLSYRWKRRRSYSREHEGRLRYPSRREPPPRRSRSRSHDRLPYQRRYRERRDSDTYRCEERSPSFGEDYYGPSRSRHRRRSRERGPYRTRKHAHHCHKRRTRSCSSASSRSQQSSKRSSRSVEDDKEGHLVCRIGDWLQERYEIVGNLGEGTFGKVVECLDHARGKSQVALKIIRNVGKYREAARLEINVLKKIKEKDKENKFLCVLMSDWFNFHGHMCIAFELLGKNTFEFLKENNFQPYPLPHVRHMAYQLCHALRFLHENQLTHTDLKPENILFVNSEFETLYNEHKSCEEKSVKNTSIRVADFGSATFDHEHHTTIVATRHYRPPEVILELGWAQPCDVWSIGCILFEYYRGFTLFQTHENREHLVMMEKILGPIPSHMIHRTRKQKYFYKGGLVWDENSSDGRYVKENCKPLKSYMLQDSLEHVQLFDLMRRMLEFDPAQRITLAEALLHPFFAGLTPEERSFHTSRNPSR

[14] = molecular target: DDR2(h) (human) (UniProt Q16832)
[15] = molecular target: EGFR(L858R)(h) (human) (UniProt P00533)
[16] = molecular target: EphA1(h) (human) (UniProt P21709)
[17] = molecular target: EphB1(h) (human) (UniProt P54762)
[18] = molecular target: EphB3(h) (human) (UniProt P54753)
[19] = molecular target: FGFR3(h) (human) (UniProt P22607)
[20] = molecular target: Fes(h) (human) (UniProt P07332)
[21] = molecular target: Fms(h) (human) (UniProt P07333)
[22] = molecular target: GSK3α(h) (human) (UniProt P49840)
[23] = molecular target: GSK3β(h) (human) (UniProt P49841)
[24] = molecular target: IGF-1R(h), activated (human) (UniProt P08069)
Sequence of IGF-1R(h), activated (human) (P08069 959-1367 limits assumed): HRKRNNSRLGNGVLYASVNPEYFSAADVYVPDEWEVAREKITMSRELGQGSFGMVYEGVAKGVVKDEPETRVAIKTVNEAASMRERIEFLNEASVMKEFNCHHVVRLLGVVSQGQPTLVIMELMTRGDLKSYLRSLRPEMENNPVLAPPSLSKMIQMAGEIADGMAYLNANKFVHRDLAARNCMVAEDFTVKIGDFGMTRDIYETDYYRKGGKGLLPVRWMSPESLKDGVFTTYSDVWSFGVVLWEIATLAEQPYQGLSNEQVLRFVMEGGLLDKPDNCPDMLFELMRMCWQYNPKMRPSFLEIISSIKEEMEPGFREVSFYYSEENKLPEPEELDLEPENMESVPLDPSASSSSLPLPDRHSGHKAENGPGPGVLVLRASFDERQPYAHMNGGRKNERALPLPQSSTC

[25] = molecular target: IKKα(h) (human) (UniProt O15111)
[26] = molecular target: Itk(h) (human) (UniProt Q08881)
[27] = molecular target: LKB1(h) (human) (UniProt Q15831)
[28] = molecular target: MEK1(h) (human) (UniProt Q02750)
[29] = molecular target: MLCK(h) (human)
[30] = molecular target: MSSK1(h) (human) (UniProt Q9UPE1)
Sequence of MSSK1(h) (human) (Q9UPE1 whole entry): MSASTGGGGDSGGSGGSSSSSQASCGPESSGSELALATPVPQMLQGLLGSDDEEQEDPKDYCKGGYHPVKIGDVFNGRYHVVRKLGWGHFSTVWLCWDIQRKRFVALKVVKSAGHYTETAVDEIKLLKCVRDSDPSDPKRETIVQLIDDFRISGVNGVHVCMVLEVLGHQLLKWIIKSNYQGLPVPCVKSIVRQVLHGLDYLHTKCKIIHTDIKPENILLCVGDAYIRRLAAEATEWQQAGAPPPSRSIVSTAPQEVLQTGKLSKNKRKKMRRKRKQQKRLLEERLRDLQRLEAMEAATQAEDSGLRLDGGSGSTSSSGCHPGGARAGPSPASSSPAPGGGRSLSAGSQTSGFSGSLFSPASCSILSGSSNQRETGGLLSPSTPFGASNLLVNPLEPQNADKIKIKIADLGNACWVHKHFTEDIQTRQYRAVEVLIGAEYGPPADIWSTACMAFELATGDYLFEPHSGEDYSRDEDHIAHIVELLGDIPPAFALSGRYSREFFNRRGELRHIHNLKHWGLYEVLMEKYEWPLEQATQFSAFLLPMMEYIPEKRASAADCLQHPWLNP

[31] = molecular target: Met(h) (human) (UniProt P08581)
[32] = molecular target: Mnk2(h) (human) (UniProt Q9HBH9)
[33] = molecular target: MuSK(h) (human) (UniProt O15146)
[34] = molecular target: NEK11(h) (human) (UniProt Q8NG66)
[35] = molecular target: NLK(h) (human) (UniProt Q9UBE8)
[36] = molecular target: PAK5(h) (human) (UniProt Q9P286)
[37] = molecular target: PKBα(h) (human) (UniProt P31749)
[38] = molecular target: PKBγ(h) (human) (UniProt Q9Y243)
[39] = molecular target: PKCα(h) (human) (UniProt P17252)
[40] = molecular target: PKCη(h) (human) (UniProt P24723)
Sequence of PKCη(h) (human) (P24723 whole entry): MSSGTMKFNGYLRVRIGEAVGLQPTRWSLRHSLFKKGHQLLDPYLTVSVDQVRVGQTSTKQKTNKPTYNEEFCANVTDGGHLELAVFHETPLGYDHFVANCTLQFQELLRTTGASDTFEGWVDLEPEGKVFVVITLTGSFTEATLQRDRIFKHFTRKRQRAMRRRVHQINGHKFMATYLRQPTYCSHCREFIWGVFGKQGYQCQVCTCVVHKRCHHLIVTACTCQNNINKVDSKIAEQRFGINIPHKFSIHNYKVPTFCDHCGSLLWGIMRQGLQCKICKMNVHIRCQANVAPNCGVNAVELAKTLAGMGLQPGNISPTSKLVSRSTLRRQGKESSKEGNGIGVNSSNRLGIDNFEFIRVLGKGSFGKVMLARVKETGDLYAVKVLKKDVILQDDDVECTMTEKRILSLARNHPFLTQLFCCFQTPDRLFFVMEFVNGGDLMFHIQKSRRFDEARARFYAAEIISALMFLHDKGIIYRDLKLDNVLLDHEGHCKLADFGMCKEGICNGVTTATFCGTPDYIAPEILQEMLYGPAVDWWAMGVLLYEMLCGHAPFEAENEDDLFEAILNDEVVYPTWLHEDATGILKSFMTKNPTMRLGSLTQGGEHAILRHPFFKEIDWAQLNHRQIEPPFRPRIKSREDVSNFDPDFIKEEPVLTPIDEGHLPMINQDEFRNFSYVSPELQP

[41] = molecular target: PKG1α(h) (human) (UniProt Q13976)
[42] = molecular target: PTK5(h) (human) (UniProt P42685)
Sequence of PTK5(h) (human) (P42685 whole entry): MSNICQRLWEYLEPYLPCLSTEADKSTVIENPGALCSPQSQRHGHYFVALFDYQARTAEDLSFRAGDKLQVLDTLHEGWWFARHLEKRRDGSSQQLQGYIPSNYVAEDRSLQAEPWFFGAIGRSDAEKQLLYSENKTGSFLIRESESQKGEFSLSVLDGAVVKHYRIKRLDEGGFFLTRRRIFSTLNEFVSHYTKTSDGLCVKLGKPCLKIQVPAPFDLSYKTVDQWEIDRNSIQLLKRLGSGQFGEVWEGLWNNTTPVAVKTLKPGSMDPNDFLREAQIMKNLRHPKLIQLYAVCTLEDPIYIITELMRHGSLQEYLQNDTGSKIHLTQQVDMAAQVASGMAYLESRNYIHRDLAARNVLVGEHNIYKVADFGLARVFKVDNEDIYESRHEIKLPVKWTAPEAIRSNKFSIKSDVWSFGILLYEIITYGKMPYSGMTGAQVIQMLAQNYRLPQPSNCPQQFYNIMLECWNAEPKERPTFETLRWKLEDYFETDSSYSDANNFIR

[43] = molecular target: Pim-3(h) (human) (UniProt Q86V86)
[44] = molecular target: ROCK-II(h) (human) (UniProt O75116)
[45] = molecular target: Ret(h) (human) (UniProt P07949)
[46] = molecular target: Rsk1(h) (human) (UniProt Q15418)
[47] = molecular target: SAPK2a(h) (human) (UniProt Q16539)
[48] = molecular target: SGK3(h) (human) (UniProt Q96BR1)
[49] = molecular target: SIK(h) (human) (UniProt P57059)
Sequence of SIK(h) (human) (P57059 whole entry): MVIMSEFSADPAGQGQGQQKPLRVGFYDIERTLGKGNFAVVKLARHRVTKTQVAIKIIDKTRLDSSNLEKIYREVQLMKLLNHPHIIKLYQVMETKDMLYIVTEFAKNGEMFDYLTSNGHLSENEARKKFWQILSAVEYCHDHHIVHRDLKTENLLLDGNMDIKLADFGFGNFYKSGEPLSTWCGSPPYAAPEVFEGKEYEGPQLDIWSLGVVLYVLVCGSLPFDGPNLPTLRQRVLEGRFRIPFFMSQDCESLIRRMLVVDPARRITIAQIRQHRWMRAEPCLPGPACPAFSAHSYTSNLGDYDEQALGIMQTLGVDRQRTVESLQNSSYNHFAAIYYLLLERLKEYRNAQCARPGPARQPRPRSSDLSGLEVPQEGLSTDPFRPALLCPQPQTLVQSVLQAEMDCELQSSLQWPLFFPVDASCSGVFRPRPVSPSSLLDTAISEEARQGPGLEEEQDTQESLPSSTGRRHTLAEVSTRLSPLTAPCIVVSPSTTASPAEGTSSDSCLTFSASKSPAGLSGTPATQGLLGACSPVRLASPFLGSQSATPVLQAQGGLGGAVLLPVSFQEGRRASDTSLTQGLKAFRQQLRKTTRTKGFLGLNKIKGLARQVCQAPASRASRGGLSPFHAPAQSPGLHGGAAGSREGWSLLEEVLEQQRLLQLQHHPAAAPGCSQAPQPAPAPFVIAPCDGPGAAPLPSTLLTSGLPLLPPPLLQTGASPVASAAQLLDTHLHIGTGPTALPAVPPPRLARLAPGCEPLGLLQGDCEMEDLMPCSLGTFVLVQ

[50] = molecular target: Snk(h) (human) (UniProt Q9NYY3)
Sequence of Snk(h) (human) (Q9NYY3 whole entry): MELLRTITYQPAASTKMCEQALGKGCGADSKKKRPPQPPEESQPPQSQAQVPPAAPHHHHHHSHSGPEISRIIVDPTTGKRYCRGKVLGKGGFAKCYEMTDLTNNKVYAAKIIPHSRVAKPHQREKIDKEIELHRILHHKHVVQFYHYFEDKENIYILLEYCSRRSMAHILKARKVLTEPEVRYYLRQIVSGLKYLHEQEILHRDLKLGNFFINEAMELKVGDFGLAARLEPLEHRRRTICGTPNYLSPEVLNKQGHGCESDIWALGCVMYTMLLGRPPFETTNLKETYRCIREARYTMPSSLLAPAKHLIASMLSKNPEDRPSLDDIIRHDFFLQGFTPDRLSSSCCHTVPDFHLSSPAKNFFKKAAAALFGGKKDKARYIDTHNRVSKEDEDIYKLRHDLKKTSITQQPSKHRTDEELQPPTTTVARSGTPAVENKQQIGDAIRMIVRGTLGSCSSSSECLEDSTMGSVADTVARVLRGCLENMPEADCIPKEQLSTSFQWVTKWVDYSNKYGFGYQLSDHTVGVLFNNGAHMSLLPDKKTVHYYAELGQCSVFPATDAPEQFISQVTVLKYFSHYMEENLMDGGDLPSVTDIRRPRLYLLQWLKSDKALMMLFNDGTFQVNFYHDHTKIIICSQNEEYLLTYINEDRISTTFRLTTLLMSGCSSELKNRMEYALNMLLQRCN

[51] = molecular target: Src(T341M)(h) (human) (UniProt P12931)
[52] = molecular target: TSSK2(h) (human) (UniProt Q96PF2)
[53] = molecular target: Tec(h)activated (human) (UniProt P42680)
[54] = molecular target: Tie2(Y897S)(h) (human) (UniProt Q02763)
Sequence of Tie2(Y897S)(h) (human) (Q02763 771-1124 Y897S limits assumed): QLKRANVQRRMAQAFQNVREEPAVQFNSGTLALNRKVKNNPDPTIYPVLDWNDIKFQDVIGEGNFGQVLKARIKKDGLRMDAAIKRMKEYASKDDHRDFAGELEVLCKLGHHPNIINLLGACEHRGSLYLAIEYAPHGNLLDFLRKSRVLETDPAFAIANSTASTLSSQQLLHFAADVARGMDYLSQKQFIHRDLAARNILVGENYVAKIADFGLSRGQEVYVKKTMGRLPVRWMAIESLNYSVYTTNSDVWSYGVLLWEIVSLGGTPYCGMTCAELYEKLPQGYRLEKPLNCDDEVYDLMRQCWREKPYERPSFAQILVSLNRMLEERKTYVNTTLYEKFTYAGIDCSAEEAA

[55] = molecular target: WNK2(h) (human) (UniProt Q9Y3S1)
[56] = molecular target: mTOR/FKBP12(h) (human) (UniProt P42345)
[57] = molecular target: p70S6K(h) (human) (UniProt P23443)
Sequence of p70S6K(h) (human) (P23443 1-421 limits assumed): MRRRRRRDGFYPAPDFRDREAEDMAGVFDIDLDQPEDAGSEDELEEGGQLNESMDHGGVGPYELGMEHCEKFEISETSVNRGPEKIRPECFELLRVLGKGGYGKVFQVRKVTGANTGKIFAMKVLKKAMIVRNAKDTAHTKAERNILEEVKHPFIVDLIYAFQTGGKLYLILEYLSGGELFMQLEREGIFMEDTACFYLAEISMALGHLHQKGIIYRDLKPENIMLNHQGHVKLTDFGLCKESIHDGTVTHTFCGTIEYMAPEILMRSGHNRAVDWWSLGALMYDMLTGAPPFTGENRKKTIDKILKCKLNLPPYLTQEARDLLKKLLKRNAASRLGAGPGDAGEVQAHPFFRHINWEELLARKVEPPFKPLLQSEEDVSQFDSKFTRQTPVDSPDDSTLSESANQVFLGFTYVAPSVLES

Substance: MMI-0200 (peptide)
% activity [1]: 152%
% activity [2]: 119%
% activity [3]: 107%
% activity [4]: 82%
% activity [5]: 166%
% activity [6]: 127%
% activity [7]: 76%
% activity [8]: 115%
% activity [9]: 112%
% activity [10]: 115%
% activity [11]: 81%
% activity [12]: 83%
% activity [13]: 76%
% activity [14]: 104%
% activity [15]: 120%
% activity [16]: 136%
% activity [17]: 95%
% activity [18]: 128%
% activity [19]: 208%
% activity [20]: 74%
% activity [21]: 92%
% activity [22]: 119%
% activity [23]: 132%
% activity [24]: 94%
% activity [25]: 104%
% activity [26]: 98%
% activity [27]: 99%
% activity [28]: 116%
% activity [29]: 103%
% activity [30]: 100%
% activity [31]: 71%
% activity [32]: 106%
% activity [33]: 106%
% activity [34]: 95%
% activity [35]: 106%
% activity [36]: 100%
% activity [37]: 110%
% activity [38]: 103%
% activity [39]: 100%
% activity [40]: 101%
% activity [41]: 70%
% activity [42]: 108%
% activity [43]: 94%
% activity [44]: 85%
% activity [45]: 96%
% activity [46]: 102%
% activity [47]: 107%
% activity [48]: 58%
% activity [49]: 102%
% activity [50]: 109%
% activity [51]: 56%
% activity [52]: 91%
% activity [53]: 77%
% activity [54]: 85%
% activity [55]: 94%
% activity [56]: 118%
% activity [57]: 84%

Substance: MMI-0100 (peptide)
% activity [1]: 124%
% activity [2]: 128%
% activity [3]: 105%
% activity [4]: 89%
% activity [5]: 94%
% activity [6]: 70%
% activity [7]: 62%
% activity [8]: 96%
% activity [9]: 106%
% activity [10]: 97%
% activity [11]: 97%
% activity [12]: 90%
% activity [13]: 108%
% activity [14]: 105%
% activity [15]: 76%
% activity [16]: 114%
% activity [17]: 99%
% activity [18]: 109%
% activity [19]: 73%
% activity [20]: 44%
% activity [21]: 89%
% activity [22]: 183%
% activity [23]: 113%
% activity [24]: 126%
% activity [25]: 108%
% activity [26]: 99%
% activity [27]: 111%
% activity [28]: 86%
% activity [29]: 85%
% activity [30]: 82%
% activity [31]: 104%
% activity [32]: 94%
% activity [33]: 85%
% activity [34]: 102%
% activity [35]: 100%
% activity [36]: 97%
% activity [37]: 140%
% activity [38]: 105%
% activity [39]: 94%
% activity [40]: 105%
% activity [41]: 82%
% activity [42]: 135%
% activity [43]: 98%
% activity [44]: 102%
% activity [45]: 108%
% activity [46]: 86%
% activity [47]: 110%
% activity [48]: 95%
% activity [49]: 113%
% activity [50]: 94%
% activity [51]: 98%
% activity [52]: 107%
% activity [53]: 100%
% activity [54]: 99%
% activity [55]: 95%
% activity [56]: 117%
% activity [57]: 89%

% activity [1]: 81%
% activity [2]: 61%
% activity [3]: 40%
% activity [4]: 22%
% activity [5]: 5%
% activity [6]: 41%
% activity [7]: 45%
% activity [8]: 57%
% activity [9]: 19%
% activity [10]: 65%
% activity [11]: 3%
% activity [12]: 93%
% activity [13]: 76%
% activity [14]: 79%
% activity [15]: 26%
% activity [16]: 40%
% activity [17]: 37%
% activity [18]: 79%
% activity [19]: 10%
% activity [20]: 23%
% activity [21]: 14%
% activity [22]: 175%
% activity [23]: 238%
% activity [24]: 45%
% activity [25]: 50%
% activity [26]: 7%
% activity [27]: 51%
% activity [28]: 21%
% activity [29]: 0%
% activity [30]: 22%
% activity [31]: 27%
% activity [32]: 6%
% activity [33]: 27%
% activity [34]: 2%
% activity [35]: 19%
% activity [36]: 125%
% activity [37]: 30%
% activity [38]: 20%
% activity [39]: 3%
% activity [40]: 45%
% activity [41]: 25%
% activity [42]: 96%
% activity [43]: 37%
% activity [44]: 2%
% activity [45]: 174%
% activity [46]: 34%
% activity [47]: 52%
% activity [48]: -3%
% activity [49]: 40%
% activity [50]: 122%
% activity [51]: 59%
% activity [52]: 92%
% activity [53]: 33%
% activity [54]: 80%
% activity [55]: 8%
% activity [56]: 140%
% activity [57]: 3%
Substance: MMI-0500 (peptide)
